For data set [1], the target named is T1, LIG1 wild-type (Cy5-labelled) (human, UniProt P18858 1-919). The experiment in a line: single-molecule TIRF co-localization; tbound 7.0 ± 0.9 s and 0.7 ± 0.1 s; tunbound 61 ± 2 s; 1 nM LIG1; TIRF: 1 mM HEPES pH 7.4, 20 mM NaCl, 0.02% BSA, 0.002% Tween 20, oxygen scavenger (44 mM glucose, glucose oxidase, catalase), 10 mM Trolox, 1 nM LIG1-Cy5, room. The note with it: protein: recombinant; tags: 6xHis; Cy5 (NHS ester); label: 5'-biotin on S15; 3'-AF488 on S18; blunt 34-bp duplex with one nick between S15 and S18; 3'-A opposite T at nick.

For data set [2], the target named is LIG1 K845N (Cy5-labelled) (human, UniProt P18858 1-919, K845N). The experiment in a line: single-molecule TIRF co-localization; long tbound 4 ± 0.7 s; tunbound 113 ± 8 s; similar to its nick binding, mostly nonspecific; 1 nM LIG1; TIRF: 1 mM HEPES pH 7.4, 20 mM NaCl, 0.02% BSA, 0.002% Tween 20, oxygen scavenger (44 mM glucose, glucose oxidase, catalase), 10 mM Trolox, 1 nM LIG1-Cy5, room. The note with it: protein: recombinant; tags: 6xHis; Cy5 (NHS ester); label: 5'-biotin and 3'-AF488 on S1; blunt, no nick.

Data set [3] addresses T1, LIG1 wild-type (Cy5-labelled). The experiment in a line: single-molecule TIRF co-localization; tunbound 79 ± 5 s; 1 nM LIG1; TIRF: 1 mM HEPES pH 7.4, 20 mM NaCl, 0.02% BSA, 0.002% Tween 20, oxygen scavenger (44 mM glucose, glucose oxidase, catalase), 10 mM Trolox, 1 nM LIG1-Cy5, room. The note with it: protein: recombinant; tags: 6xHis; Cy5 (NHS ester); label: 5'-biotin on strand 1; 3'-AF488 on S18; blunt 34-bp duplex with one nick between strand 1 and S18; 3'-8oxoG opposite A at nick.

Substitutions are numbered along the chain they refer to.

T1 sequence (P18858 whole entry): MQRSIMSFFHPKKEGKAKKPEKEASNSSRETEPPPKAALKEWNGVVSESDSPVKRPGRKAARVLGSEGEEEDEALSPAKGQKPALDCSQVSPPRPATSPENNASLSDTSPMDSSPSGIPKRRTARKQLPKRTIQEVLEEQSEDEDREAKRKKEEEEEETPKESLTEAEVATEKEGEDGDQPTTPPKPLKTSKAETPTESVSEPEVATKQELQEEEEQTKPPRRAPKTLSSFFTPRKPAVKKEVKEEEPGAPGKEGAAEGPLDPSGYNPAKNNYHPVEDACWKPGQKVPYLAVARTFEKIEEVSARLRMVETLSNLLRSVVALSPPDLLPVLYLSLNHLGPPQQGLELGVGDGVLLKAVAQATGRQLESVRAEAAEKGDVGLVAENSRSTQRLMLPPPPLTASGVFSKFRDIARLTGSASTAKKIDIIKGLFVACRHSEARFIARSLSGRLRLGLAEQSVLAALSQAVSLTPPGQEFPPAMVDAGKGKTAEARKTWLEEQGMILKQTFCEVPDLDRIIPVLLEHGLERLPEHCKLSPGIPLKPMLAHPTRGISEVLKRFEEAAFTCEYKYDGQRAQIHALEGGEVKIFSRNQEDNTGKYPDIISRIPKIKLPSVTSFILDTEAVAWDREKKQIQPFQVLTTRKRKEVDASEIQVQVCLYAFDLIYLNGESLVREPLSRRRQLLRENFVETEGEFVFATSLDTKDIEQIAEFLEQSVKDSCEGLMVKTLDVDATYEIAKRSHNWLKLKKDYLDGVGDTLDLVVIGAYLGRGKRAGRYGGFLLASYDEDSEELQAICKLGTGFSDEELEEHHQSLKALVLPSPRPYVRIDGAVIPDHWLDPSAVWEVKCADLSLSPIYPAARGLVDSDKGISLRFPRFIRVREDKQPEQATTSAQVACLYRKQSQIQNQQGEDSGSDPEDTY
Sequence of LIG1 K845N (Cy5-labelled) (P18858 whole entry K845N): as the sequence (P18858 whole entry) above, with K845N counted along it

B1: nick A:T (dsDNA)
DNA 1: CATGGGCGGCATGAACCA
DNA 2: GAGGCCCATCCTCACC
DNA 3: GGTGAGGATGGGCCTCTGGTTCATGCCGCCCATG
modifications: 5'-phosphate on S18 at nick
For B1, in data set [1], the binding result is reported as “binds”.

B2: no-nick dsDNA (dsDNA)
DNA 1: CATGGGCGGCATGAACCAGAGGCCCATCCTCACC
DNA 2: B1 DNA 3
Regarding B2, the binding result in data set [2] is “binds”.

B3: nick 8oxoG:A (dsDNA)
DNA 1: CATGGGCGGCATGAACCG
DNA 2: GAGGCCCATCCTCACC
DNA 3: B1 DNA 3 with T17A
modifications: 8-oxo-dG at position 18 of strand 1; 5'-phosphate on S18 at nick
Regarding B3, the binding result in data set [3] is “binds”.

(Values after paper PMC12673853, “Impaired nick recognition and ligation efficiency by LIG1 K845N variant linked to Huntington’s disease”.)
